Tests used:
[1] = biological target: T1, Recombinant mouse CTLA-4/human IgG1 chimera (R&D Systems) (mouse; human, UniProt P09793 36-162, limits assumed); assay: ELISA: mouse CTLA-4/human IgG1 chimera coated at 1 or 5 µg/mL; HEK293 conditioned medium with 9H10-scFv at 168 ng/mL; anti-mouse IgG-HRP, OD 450 nm
T1 construct: Bought reagent; also called recombinant mCTLA-4/Fc; recombinant CTLA4 protein; not shown: human IgG1 portion (Fc) of the bought chimera
Experimental: (§1) Plasmid encoded anti-CTLA4 scFv bound to recombinant CTLA4 protein. Transfection-derived secreted anti-CTLA4 (scFv) were evaluated for their binding capacity to CTLA-4. Recombinant mouse CTLA-4/human IgG1 chimera (R&D Systems) were immobilized in 96-well plates (1 or 5 μg/mL, or […]) for 18 hr at room temperature. Wells were washed three times with 0.1% Tween in PBS and blocked with 1% BSA in PBS. Conditioned medium from HEK293 cells transfected with 9H10-scFv (168 ng/mL) or 9D9-scFv (130 ng/mL) was added to the wells, and incubated for 2 h at room temperature. Wells were washed three times, and anti-mouse IgG-horseradish peroxidase (Jackson ImmunoResearch, 0.2 μg/mL) were added and incubated for 1.5 hours at room temperature. Wells were again washed three times, developed with HRP Substrate Reagent (R&D Systems) and stopped with Stop Solution, 2N sulfuric acid (R&D Systems). Optical density of each well was measured at 450 nm.

[2] = biological target: T1, Recombinant mouse CTLA-4/human IgG1 …; assay: ELISA: mouse CTLA-4/human IgG1 chimera coated at 1 or 5 µg/mL; HEK293 conditioned medium with 9D9-scFv at 130 ng/mL; anti-mouse IgG-HRP, OD 450 nm
Experimental: as §1

B1: 9H10-scFv (Igκ-HA-9H10 VLC-Linker-9H10 VHC-Linker-mIgG1 Fc domain, anti-CTLA-4 scFv) (scFv)
scFv: YPYDVPDYAGAQPARSDIVMTQSPSSLAVSVGEKVTISCKSSQSLLYGSSHYLAWYQQKVGQSPKLLIYWASTRHTGIPDRFIGSGSGTDFTLSLSSVQAEDMADYFCQQYFSTPWTFGAGTRVEIKSGSGGGSGGGSGGGSQVQLLQSESELVKPGASVKLSCKTSGYTFTDYYIHWVKQKPGQGLEWIGLINPNNDGTNYNQKFQGKATLTADKSSSTAYMELNSLTFDDSVIYFCARASSRLRMARTTSDYYAMDYWGQGIQVTVSSVDSSGSGGCKPCICTVPEVSSVFIFPPKPKDVLTITLTPKVTCVVVDISKDDPEVQFSWFVDDVEVHTAQTQPREEQFNSTFRSVSELPIMHQDWLNGKEFKCRVNSAAFPAPIEKTISKTKGRPKAPQVYTIPPPKEQMAKDKVSLTCMITDFFPEDITVEWQWNGQPAENYKNTQPIMDTDGSYFVYSKLNVQKSNWEAGNTFTCSVLHEGLHNHHTEKSLSHSPGK
notes: scFv (VL-linker-VH) with an N-terminal HA tag, fused to a mouse IgG1 Fc domain; It was secreted into conditioned medium of transfected HEK293 cells; also called plasmid encoded anti-CTLA4 scFv
Question: Does B1 bind [1]?
Answer: binds

B2: 9D9-scFv (Igκ-HA-9D9 VLC-Linker-9D9 VHC-Linker-mIgG1 Fc domain, anti-CTLA-4 scFv) (scFv)
scFv: YPYDVPDYAGAQPARSDIVMTQTTLSLPVSLGDQASISCRSSQSIVHSNGNTYLEWYLQKPGQSPKLLIYKVSNRFSGVPDRFSGSGSGTDFTLKISRVEAEDLGVYYCFQGSHVPYTFGGGTKLEIKRADAAPTVSGSGGGSGGGSGGGSEAKLQESGPVLVKPGASVKMSCKASGYTFTDYYMNWVKQSHGKSLEWIGVINPYNGDTSYNQKFKGKATLTVDKSSSTAYMELNSLTSEDSAVYYCARYYGSWFAYWGQGTLITVSTAKTTPPSVYPLAPVDSSGSGGCKPCICTVPEVSSVFIFPPKPKDVLTITLTPKVTCVVVDISKDDPEVQFSWFVDDVEVHTAQTQPREEQFNSTFRSVSELPIMHQDWLNGKEFKCRVNSAAFPAPIEKTISKTKGRPKAPQVYTIPPPKEQMAKDKVSLTCMITDFFPEDITVEWQWNGQPAENYKNTQPIMDTDGSYFVYSKLNVQKSNWEAGNTFTCSVLHEGLHNHHTEKSLSHSPGK
notes: as for B1
Question: Does B2 bind [2]?
Answer: binds

— patent US20220041724A1 (GRAND DECADE DEVELOPMENTS, published 2022)
